PMC5473807, “Distribution and kinetics of the Kv1.3-blocking peptide HsTX1[R14A] in experimental rats” (Scientific Reports, 2017)
Read-outs that look alike come from different tables or passages of the source.

Assay: In vivo biodistribution by organ and tissue extraction
Design: species or system male Wistar rats
Details: for SUV at 5 min / tissue uptake dose at 5 min / SUV at 1 h / tissue uptake dose at 1 h / SUV at 4 h / tissue uptake dose at 4 h / SUV at 24 h / tissue uptake dose at 24 h / SUV at 48 h / tissue uptake dose at 48 h: male, Wistar, total radioactivity, rat, mean ± SD; for SUV at 5 min / tissue uptake dose at 5 min: 5 min p.i.; for SUV at 1 h / tissue uptake dose at 1 h: 60 min p.i.; for SUV at 4 h / tissue uptake dose at 4 h: 240 min p.i.; for SUV at 24 h / tissue uptake dose at 24 h: 1440 min p.i.; for SUV at 48 h / tissue uptake dose at 48 h: 2880 min p.i.
Description: The present study includes data obtained from a total of 50 animals. Four animals (body weight 227 ± 10 g) for each time point were injected intravenously into a tail vein or subcutaneously with approximately 0.3 MBq ([…]) [^64Cu]Cu-NOTA-HsTX1[R14A] conjugate in 0.5 mL electrolyte solution E-153 (Serumwerk Bernburg, Germany). Animals were euthanised at 5, 60, 240, 1440 and 2880 min post-injection. Blood and the major organs were collected, weighed, and counted in a cross-calibrated γ-counter (Isomed 1000, Isomed GmbH, Dresden) and Wallac WIZARD Automatic Gamma Counter (PerkinElmer, Germany). The radioactivity of the tissue samples was decay-corrected and calibrated by comparing the counts in tissue with the counts in aliquots of the injected radiotracer that had been measured in the γ-counter at the same time. The activity in the selected organs was expressed as percent-injected dose per organ (% ID) and the activity concentration in tissues and organs as standardised uptake value (SUV). Values are quoted as mean ± standard error of mean (SEM) for each group of four animals.

[1] = Harderian gland, iv, 0.3 MBq, i.v., n=4, read-out: Harderian gl. SUV
[2] = Harderian gland, iv, 0.3 MBq, i.v., n=4, read-out: Harderian gl. activity amount
[3] = Harderian gland, iv, 0.3 MBq, i.v., n=8, read-out: Harderian gl. SUV
[4] = Harderian gland, iv, 0.3 MBq, i.v., n=8, read-out: Harderian gl. activity amount
[5] = Harderian gland, sc, 0.3 MBq, s.c., n=4, read-out: Harderian gl. SUV
[6] = Harderian gland, sc, 0.3 MBq, s.c., n=4, read-out: Harderian gl. activity amount
[7] = adrenals, iv, 0.3 MBq, i.v., n=4, read-out: Adrenals SUV
[8] = adrenals, iv, 0.3 MBq, i.v., n=4, read-out: Adrenals activity amount
[9] = adrenals, iv, 0.3 MBq, i.v., n=8, read-out: Adrenals SUV
[10] = adrenals, iv, 0.3 MBq, i.v., n=8, read-out: Adrenals activity amount
[11] = adrenals, sc, 0.3 MBq, s.c., n=4, read-out: Adrenals SUV
[12] = adrenals, sc, 0.3 MBq, s.c., n=4, read-out: Adrenals activity amount
[13] = blood, sc, s.c., n=4, read-out: Blood SUV
[14] = brain, iv, 0.3 MBq, i.v., n=4, read-out: Brain SUV
[15] = brain, iv, 0.3 MBq, i.v., n=4, read-out: Brain activity amount
[16] = brain, iv, 0.3 MBq, i.v., n=8, read-out: Brain SUV
[17] = brain, iv, 0.3 MBq, i.v., n=8, read-out: Brain activity amount
[18] = brain, sc, 0.3 MBq, s.c., n=4, read-out: Brain SUV
[19] = brain, sc, 0.3 MBq, s.c., n=4, read-out: Brain activity amount
[20] = carcass, iv, 0.3 MBq, i.v., n=4, read-out: Carcass activity amount
[21] = carcass, iv, 0.3 MBq, i.v., n=8, read-out: Carcass activity amount
[22] = carcass, sc, 0.3 MBq, s.c., n=4, read-out: Carcass activity amount
[23] = femur, iv, 0.3 MBq, i.v., n=4, read-out: Femur SUV
[24] = femur, iv, 0.3 MBq, i.v., n=4, read-out: Femur activity amount
[25] = femur, iv, 0.3 MBq, i.v., n=8, read-out: Femur SUV
[26] = femur, iv, 0.3 MBq, i.v., n=8, read-out: Femur activity amount

## CSCC[C@@H]1NC(=O)[C@@H]2CSSC[C@H](NC(=O)[C@H](CO)NC(=O)[C@H](C)NC(=O)COCCOCCNC(=O)CN3CCN(CC(=O)O)CCN(CC(=O)O)CC3)C(=O)N[C@@H](CCCNC(=N)N)C(=O)N[C@@H]([C@@H](C)O)C(=O)N3CCC[C@H]3C(=O)N[C@@H](CCCCN)C(=O)N[C@@H](CC(=O)O)C(=O)N[C@H]3CSSC[C@H](NC(=O)[C@H](CCCCN)NC(=O)[C@H](CCCNC(=N)N)NC(=O)[C@H](CC(N)=O)NC1=O)C(=O)N[C@@H](CCCCN)C(=O)N[C@H]1CSSC[C@H](NC(=O)[C@@H]4CCCN4C(=O)[C@H](CC(=O)O)NC(=O)[C@H](C)NC3=O)C(=O)N[C@@H](C)C(=O)N[C@@H](CCCCN)C(=O)N[C@@H](CCC(=O)O)C(=O)N[C@@H]([C@@H](C)O)C(=O)NCC(=O)N[C@@H](CSSC[C@@H](C(N)=O)NC(=O)[C@H](CCCNC(=N)N)NC(=O)[C@H](CC(N)=O)NC1=O)C(=O)N1CCC[C@H]1C(=O)N[C@@H](Cc1ccc(O)cc1)C(=O)NCC(=O)N[C@@H](CCCCN)C(=O)N2 [[^64Cu]Cu-NOTA-HsTX1[R14A], metal not drawn]
i.v.
  biological half-life of the total activity in the rat body: 45.4 h
[1]
  SUV at 5 min: 0.82 ± 0.12 SUV
  SUV at 4 h: 0.23 ± 0.01 SUV
  SUV at 48 h: 0.48 ± 0.05 SUV
[2]
  tissue uptake dose at 5 min: 0.1 ± 0.02 %ID
  tissue uptake dose at 4 h: 0.03 %ID
  tissue uptake dose at 48 h: 0.07 %ID
[3]
  SUV at 1 h: 0.3 ± 0.05 SUV
  SUV at 24 h: 0.56 ± 0.1 SUV
[4]
  tissue uptake dose at 1 h: 0.04 %ID
  tissue uptake dose at 24 h: 0.08 ± 0.01 %ID
[5]
  SUV at 1 h: 0.32 ± 0.01 SUV
  SUV at 4 h: 0.21 ± 0.01 SUV
  SUV at 24 h: 0.46 ± 0.01 SUV
  SUV at 48 h: 0.44 ± 0.02 SUV
[6]
  tissue uptake dose at 1 h: 0.04 %ID
  tissue uptake dose at 4 h: 0.03 %ID
  tissue uptake dose at 24 h: 0.08 ± 0.01 %ID
  tissue uptake dose at 48 h: 0.06 ± 0.01 %ID
[7]
  SUV at 5 min: 1.26 ± 0.48 SUV
  SUV at 4 h: 0.39 ± 0.05 SUV
  SUV at 48 h: 0.71 ± 0.04 SUV
[8]
  tissue uptake dose at 5 min: 0.03 %ID
  tissue uptake dose at 4 h: 0.01 %ID
  tissue uptake dose at 48 h: 0.02 %ID
[9]
  SUV at 1 h: 0.65 ± 0.37 SUV
  SUV at 24 h: 0.86 ± 0.11 SUV
[10]
  tissue uptake dose at 1 h: 0.01 %ID
  tissue uptake dose at 24 h: 0.02 %ID
[11]
  SUV at 1 h: 0.4 ± 0.08 SUV
  SUV at 4 h: 0.4 ± 0.02 SUV
  SUV at 24 h: 0.73 ± 0.1 SUV
  SUV at 48 h: 0.55 ± 0.33 SUV
[12]
  tissue uptake dose at 1 h: 0.01 %ID
  tissue uptake dose at 4 h: 0.01 %ID
  tissue uptake dose at 24 h: 0.02 %ID
  tissue uptake dose at 48 h: 0.02 ± 0.01 %ID
blood, iv, 0.3 MBq, i.v., n=4, read-out: Blood SUV
  SUV at 5 min: 1.09 ± 0.62 SUV
blood, iv, 0.3 MBq, i.v., n=8, read-out: Blood SUV
  SUV at 1 h: 0.7 ± 0.23 SUV
[13]
  SUV at 4 h: 0.47 ± 0.21 SUV
  SUV at 24 h: 0.44 ± 0.04 SUV
  SUV at 48 h: 0.3 ± 0.01 SUV
[14]
  SUV at 5 min: 0.07 SUV
  SUV at 4 h: 0.03 SUV
  SUV at 48 h: 0.07 SUV
[15]
  tissue uptake dose at 5 min: 0.05 %ID
  tissue uptake dose at 4 h: 0.05 ± 0.01 %ID
  tissue uptake dose at 48 h: 0.1 %ID
[16]
  SUV at 1 h: 0.05 ± 0.01 SUV
  SUV at 24 h: 0.08 ± 0.01 SUV
[17]
  tissue uptake dose at 1 h: 0.05 ± 0.03 %ID
  tissue uptake dose at 24 h: 0.08 ± 0.03 %ID
[18]
  SUV at 1 h: 0.04 SUV
  SUV at 4 h: 0.03 SUV
  SUV at 24 h: 0.06 SUV
  SUV at 48 h: 0.07 SUV
[19]
  tissue uptake dose at 1 h: 0.06 ± 0.01 %ID
  tissue uptake dose at 4 h: 0.05 %ID
  tissue uptake dose at 24 h: 0.1 %ID
  tissue uptake dose at 48 h: 0.09 %ID
[20]
  tissue uptake dose at 5 min: 63.4 ± 6.19 %ID
  tissue uptake dose at 4 h: 20.1 ± 1.68 %ID
  tissue uptake dose at 48 h: 21.6 ± 1.04 %ID
[21]
  tissue uptake dose at 1 h: 28.1 ± 1.55 %ID
  tissue uptake dose at 24 h: 28.4 ± 3.49 %ID
[22]
  tissue uptake dose at 1 h: 32.9 ± 2.62 %ID
  tissue uptake dose at 4 h: 20.1 ± 1.28 %ID
  tissue uptake dose at 24 h: 28.5 ± 1.49 %ID
  tissue uptake dose at 48 h: 19.7 ± 2.74 %ID
[23]
  SUV at 5 min: 3.04 ± 2.13 SUV
  SUV at 4 h: 0.87 ± 0.04 SUV
[24]
  tissue uptake dose at 5 min: 1.32 ± 0.89 %ID
  tissue uptake dose at 4 h: 0.55 ± 0.03 %ID
[25]
  SUV at 1 h: 1.58 ± 0.58 SUV
  SUV at 24 h: 0.54 ± 0.06 SUV
[26]
  tissue uptake dose at 1 h: 0.8 ± 0.21 %ID
  tissue uptake dose at 24 h: 0.3 ± 0.06 %ID
